Results reported in article PMC8284805, “Mechanism underlying the DNA-binding preferences of the Vibrio cholerae and vibriophage VP882 VqmA quorum-sensing receptors”.

Assays:
[1] = tested on: GST-DBDPhage (Vibriophage VP882); assay: EMSA; conditions: EMSA: 25 nM DNA, 18.75-600 nM protein (dimer), 6% DNA retardation gel, SYBR Green; buffer, pH and temperature not given (cited protocol); EC50 values only in …
[2] = molecular target: GST-DBDVc (GST fused to the N-terminus of the VqmAVc DNA-binding domain) (not stated | Vibrio cholerae); assay: SEC; gel filtration of the purified proteins, UV280 traces (S3D Fig)
[3] = molecular target: GST-DBDPhage (GST fused to the N-terminus of the VqmAPhage DNA-binding domain) (not stated | vibriophage VP882); assay: as above
[4] = molecular target: T1, VqmAPhage (Vibriophage VP882, UniProt A2I306 1-235); assay: EMSA; half as strong as PvqmR*; EMSA: 25 nM DNA, 18.75-600 nM protein (dimer), 6% DNA retardation gel, SYBR Green; buffer, pH and temperature not given (cited protocol); EC50 values only in S2A Fig; conditions: protein: recombinant; chain copies: 2; blunt
T1 sequence: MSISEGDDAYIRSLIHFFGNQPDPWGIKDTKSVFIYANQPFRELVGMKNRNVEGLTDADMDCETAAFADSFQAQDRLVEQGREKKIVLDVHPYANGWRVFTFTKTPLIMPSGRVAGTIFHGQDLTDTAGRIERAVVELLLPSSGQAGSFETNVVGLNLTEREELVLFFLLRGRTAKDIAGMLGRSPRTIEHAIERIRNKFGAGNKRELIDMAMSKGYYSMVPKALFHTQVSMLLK

[5] = molecular target: VqmAVc (Vibrio cholerae, UniProt A0A0F0AZW0 1-246); assay: EMSA; EMSA: 25 nM DNA, 18.75-600 nM protein (dimer), 6% DNA retardation gel, SYBR Green; buffer, pH and temperature not given (cited protocol); EC50 values only in S2A Fig; conditions: protein: recombinant; chain copies: 2; blunt
[6] = molecular target: T1, VqmAPhage; assay: as above; conditions: protein: recombinant; chain copies: 2; blunt

Which binding signal (fold stronger than PvqmR) [1] does the source give for “GAATACACTCCTTGTAAGTGATTGTTATAAGGAGCTTTATTCTTGATGCATATAAGAAATACCGATAGGGGGAAAAATACCCTGATAAGCAGCTGCTAAAATTGATAAATGTCAATAAGCGAAGGGGATGATGC (double strand) [Pqtip]” here?
The binding signal (fold stronger than PvqmR) was 5.

How did the stoichiometry N [2] turn out when “GST-DBDVc (GST fused to the N-terminus of the VqmAVc DNA-binding domain)” was run?
The stoichiometry N was 2.

With “GST-DBDPhage (GST fused to the N-terminus of the VqmAPhage DNA-binding domain)” as the molecule, how does the stoichiometry N [3] read?
Its stoichiometry N is 2.

B1: Pqtip* (dsDNA)
DNA 1: GTGATTGTTATAAGGAGCTTTATTCTTGATGCATATAAGAAATACCGATAGGGGGATTTCCCCCCTGATAAGCAGCTGCTAAAATTGATAAATGTCAATA
DNA 2: TATTGACATTTATCAATTTTAGCAGCTGCTTATCAGGGGGGAAATCCCCCTATCGGTATTTCTTATATGCATCAAGAATAAAGCTCCTTATAACAATCAC
Does B1 bind [4]?
Result: binds

Does B1 bind [5]?
Result: binds

B2: PvqmR* (dsDNA)
DNA 1: TCCGAGTATTGCGCGAGCTGTAATGTTGACTCAAACAATTATGCATAAAGGGGGGAAAAATACCCTTTTTCATTTGTACCGCGTTCGGTAAAGTACAAAC
DNA 2: GTTTGTACTTTACCGAACGCGGTACAAATGAAAAAGGGTATTTTTCCCCCCTTTATGCATAATTGTTTGAGTCAACATTACAGCTCGCGCAATACTCGGA
With B2 as the molecule, how does the binding signal [6] read?
Its binding signal is roughly 2 fold stronger than Pqtip*.
